Test results from patent US9550980B2, “Composition and methods for the production of L-homoalanine” (The Regents of the University of California, priority 2010, dated 2017).

Experiments:
threonine = assay: Production of L-homoalanine from glucose by E. coli overexpressing GDH2 and threonine dehydratases; format: cell-based, Escherichia coli; conditions: ATCC98082, overexpressed in combination with GDH2
Description: FIG. 5A is a graph with horizontal axis labels defined as follows: (1) BW25113; (2) BW25113 with overexpression of GDH2; (3) ATCC98082 with overexpression of TdcB & GDH2; (4) ATCC98082 with overexpression of IlvAEc & GDH2; (5) ATCC98082 with overexpression of IlvABS & GDH2; and (6) ATCC98082 (ArhtA) with overexpression of IlvABS and GDH2. FIG. 5B is a graph showing the yield of L-homolalanine biosynthesis from glucose. The error bars represent standard deviations from three independent experiments.
To test the production of L-homoalanine from glucose, E. coli strain ATCC98082 harboring plasmid pZS_thrO (see, e.g. Zhang et al. (2008) Proc Natl Acad Sci USA 105(52):20653-20658) was transformed with pZElac_tdcB_GDH, pZElac_ilvAEC_GDH and pZElac_ilvABS_GDH. These transformants were subjected to fermentation using the following production medium: 30 g glucose, 17 g (NH4)2SO4, 2 g KH2PO4, 1 g MgSO4.7H2O, 2 g yeast extract, 0.1 g L-valine, 0.01 g FeSO4:7H2O and 0.01 g MnSO4:7H2O per liter. Antibiotics were added appropriately (ampicillin 50 mg/L, spectinomycin 25 mg/L). Overnight 2XYT culture were diluted 25× into fermentation medium and 0.1 mM isopropyl-b-D-thiogalactoside (IPTG) was added to induce protein expression. In shake flask experiments, the culture medium was buffered by addition of 30 g/L CaCO3. Cultures were incubated in 33° C. shaker (250 rpm) for 40-50 h until glucose was consumed.

[1] = Enzymatic assay of purified glutamate dehydrogenases, amination of 2-ketobutyrate (NADPH consumption at 340 nm); format: biochemical; conditions: 100 mM Tris pH 8.0, 0.2M NH4Cl, 0.2 mM NADPH
Description: To characterize the enzymes, both the wild-type glutamate dehydrogenase GDHwt and mutant GDH2 were added an N-terminal 6×His-tag, overexpressed, and purified through Ni-NTA columns. The kinetic parameters for […] of 2-ketoglutarate (cognate substrate) and 2-ketoisovalerate or 2-ketobutyrate (nonnatural substrates) were determined by monitoring the consumption of NADPH at 340 nm (FIG. 6). […] The increase in binding affinity is very helpful since high concentration of 2-ketobutyrate interferes with cellular metabolic activities (see, e.g. Daniel et al. (1983) Mol Gen Genet 190(3):452-458). On the basis of the crystallographic model for the active site of GDH, amino group of K92 hydrogenbonds to the γ-carboxyl group of 2-ketoglutarate and determines the substrate specificity (see, e.g. Stillman et al. (1993) J Mol Biol 234(4):1131-1139). Mutation of lysine to valine increases the hydrophobic character of the binding pocket, which explains why the specificity constant kcat/Km of GDH2 towards 2-ketobutyrate is 50-fold higher than that towards the natural substrate 2-ketoglutarate.
Both gene fragments encoding wildtype glutamate dehydrogenase and GDH2 were amplified using primers GDHbamfwd and GDHbamrev. After digestion with BamHI, the gene fragments were inserted into expression plasmid pQE9 (Qiagen). The resulting expression plasmids were transformed into E. coli strain BL21(DE3) harboring pREP4 (Qiagen). Cells were inoculated from an overnight preculture at 1/100 dilution and grown in 200 mL 2XYT rich medium containing 50 mg/L ampicillin and 25 mg/L kanamycin. At an OD600 of 0.6, recombinant proteins were expressed by induction of the cell cultures with 0.1 mM IPTG, followed by incubation at 30° C. overnight. Overexpressed proteins were then purified with Ni-nitrilotriacetic acid columns. Protein concentration was determined by measuring UV absorbance at 280 nm.
Enzymatic assay was performed in assay buffer (100 mM Tris buffer, pH 8.0) containing 0.2M NH4Cl, 0.2 mM NADPH, and various concentrations of 2-ketoacids. The reactions were started by adding the purified enzymes, and the consumption of NADPH was monitored at 340 nm (extinction coefficient, 6.22 mM^−1 cm^−1). Kinetic parameters (kcat and Km) were determined by fitting initial velocity data to the Michaelis-Menten equation using Origin.

2-ketobutyrate = assay: Conversion of fed 2-ketobutyrate to L-homoalanine by E. coli BW25113 overexpressing amination enzymes; format: cell-based, Escherichia coli; parameters: L-homoalanine produced: unit not given here; conditions: for L-homoalanine produced: 10 g/L 2-ketobutyrate fed, M9 medium, 37° C., 24 h
Description: FIG. 2 is a graph comparing different amination enzymes on the production of L-homoalanine. E. coli cultures were inoculated in M9 medium with addition of 10 g/L 2-ketobutyrate and incubated at 37° C. for 24 h. The horizontal axis labels are defined as follows: (A) Wild-type E. coli BW25113; overexpression of (B) transaminase IlvE (C) valine dehydrogenase from Streptomyces avermitilis; (D) valine dehydrogenase from Streptomyces coelicolor, (E) valine dehydrogenase from Streptomyces fradiae; (F) evolved glutamate dehydrogenase GDH1; and (G) evolved glutamate dehydrogenase GDH2. The error bars represent standard deviations from three independent experiments.
In order to check if any endogenous transaminase of E. coli can work on 2-ketobutyrate, we fed 10 g/L 2-ketobutyrate to wildtype E. coli strain BW25113 growing in M9 medium. […] Since the branched-chain amino acid aminotransferase IlvE (see, e.g. Inoue K, et al. (1988) J Biochem 104(5):777-784) is likely to be a functional candidate, we cloned and overexpressed IlvE in BW25113, which increased the production of L-homoalanine to […] (FIG. 2B). […] However, high concentration of glutamate is needed to drive the reaction equilibrium because transamination is a reversible reaction process. Even under such extreme conditions, the conversion rate of transaminating 2-ketobutyrate to L-homoalanine is only 32%.
To test the conversion of 2-ketobutyrate to L-homoalanine, plasmids pZElac_IlvE, pZElac_VDHsa, pZElac_VDHsc, pZElac_VDHsf, pZElac_GDH and pZElac_GDH2 were transformed into BW25113. The transformants were inoculated in M9 medium with 5 g/L yeast extract, 10 g/L ammonium hydrochloride and 20 g/L glucose. Once OD reached ˜1.0, 10 g/L 2-ketobutyrate plus 0.1 mM IPTG were added and incubated at 37° C. for 24 h. Amino acids were quantified as o-phthaldialdehyde (OPA) derivatives by HPLC analysis.

B1: TdcB: catabolic threonine dehydratase of E. coli (protein, listed as Escherichia coli)
chain: MHITYDLPVAIDDIIEAKQRLAGRIYKTGMPRSNYFSERCKGEIFLKFENMQRTGSFKIRGAFNKLSSLTDAEKRKGVVACSAGNHAQGVSLSCAMLGIDGKVVMPKGAPKSKVAATCDYSAEVVLHGDNFNDTIAKVSEIVEMEGRIFIPPYDDPKVIAGQGTIGLEIMEDLYDVDNVIVPIGGGGLIAGIAVAIKSINPTIRVIGVQSENVHGMAASFHSGEITTHRTTGTLADGCDVSRPGNLTYEIVRELVDDIVLVSEDEIRNSMIALIQRNKVVTEGAGALACAALLSGKLDQYIQNRKTVSIISGGNIDLSRVSQITGFVDA
- L-homoalanine produced from glucose (threonine): 0.18 g/L
- glutamate accumulated (threonine): 4 g/L
- threonine remaining in fermentation medium (threonine): 3.7 g/L

B2: GDHwt: wild-type glutamate dehydrogenase of E. coli, N-terminal 6×His-tag (protein, listed as Escherichia coli)
chain: MDQTYSLESFLNHVQKRDPNQTEFAQAVREVMTTLWPFLEQNPKYRQMSLLERLVEPERVIQFRVVWVDDRNQIQVNRAWRVQFSSAIGPYKGGMRFHPSVNLSILKFLGFEQTFKNALTTLPMGGGKGGSDFDPKGKSEGEVMRFCQALMTELYRHLGADTDVPAGDIGVGGREVGFMAGMMKKLSNNTACVFTGKGLSFGGSLIRPEATGYGLVYFTEAMLKRHGMGFEGMRVSVSGSGNVAQYAIEKAMEFGARVITASDSSGTVVDESGFTKEKLARLIEIKASRDGRVADYAKEFGLVYLEGQQPWSLPVDIALPCATQNELDVDAAHQLIANGVKAVAEGANMPTTIEATELFQQAGVLFAPGKAANAGGVATSGLEMAQNAARLGWKAEKVDARLHHIMLDIHHACVEHGGEGEQTNYVQGANIAGFVKVADAMLAQGVI
modifications: N-terminal 6xHis tag
notes: wild-type glutamate dehydrogenase of E. coli, N-terminal 6×His-tag
- kcat towards 2-ketobutyrate [1]: 47.2 s⁻¹
- Km ([1]; read-out: Km towards 2-ketobutyrate): 35.4 mM

B3: IlvE: branched-chain amino acid aminotransferase of E. coli (protein, UniProt P0AB80 2-309, looked up)
Branched-chain-amino-acid …: TTKKADYIWFNGEMVRWEDAKVHVMSHALHYGTSVFEGIRCYDSHKGPVVFRHREHMQRLHDSAKIYRFPVSQSIDELMEACRDVIRKNNLTSAYIRPLIFVGDVGMGVNPPAGYSTDVIIAAFPWGAYLGAEALEQGIDAMVSSWNRAAPNTIPTAAKAGGNYLSSLLVGSEARRHGYQEGIALDVNGYISEGAGENLFEVKDGVLFTPPFTSSALPGITRDAIIKLAKELGIEVREQVLSRESLYLADEVFMSGTAAEITPVRSVDGIQVGEGRCGPVTKRIQQAFFGLFTGETEDKWGWLDQVNQ
- L-homoalanine produced (2-ketobutyrate; BW25113 transformant): 1.2
- L-homoalanine titer (2-ketobutyrate; BW25113 transformant, 10 g/L 2-ketobutyrate plus additional 10 g/L glutamate): 3.2 g/L
- conversion rate of 2-ketobutyrate to L-homoalanine (2-ketobutyrate; with 10 g/L glutamate as amino donor): 32%

B4: IlvABS: biosynthetic threonine dehydratase IlvA from Bacillus subtilis (protein, listed as Bacillus subtilis)
chain: MKPLLKENSLIQVKDILKAHQNVKDVVIHTPLQRNDRLSERYECNIYLKREDLQVVRSFKLRGAYHKMKQLSSEQTENGVVCASAGNHAQGVAFSCKHLGIHGKIFMPSTTPRQKVSQVELFGKGFIDIILTGDTFDDAYKSAAECCEAESRTFIHPFDDPDVMAGQGTLAVEILNDIDTEPHFLFASVGGGGLLSGVGTYLKNVSPDTKVIAVEPAGAASYFESNKAGHVVTLDKIDKFVDGAAVKKIGEETFRTLETVVDDILLVPEGKVCTSILELYNECAVVAEPAGALSVAALDLYKDQIKGKNVVCVVSGGNNDIGRMQEMKERSLIFEGLQHYFIVNFPQRAGALREFLDEVLGPNDDITRFEYTKKNNKSNGPALVGIELQNKADYGPLIERMNKKPFHYVEVNKDEDLFHLLI
- L-homoalanine produced from glucose (threonine): 3.8 g/L
- threonine remaining in fermentation medium (threonine): 2.5 g/L

B5: GDH1 (protein, UniProt P07262 2-454, looked up)
NADP-specific glutamate …: SEPEFQQAYEEVVSSLEDSTLFEQHPEYRKVLPIVSVPERIIQFRVTWENDKGEQEVAQGYRVQYNSAKGPYKGGLRFHPSVNLSILKFLGFEQIFKNSLTGLDMGGGKGGLCVDLKGRSNNEIRRICYAFMRELSRHIGQDTDVPAGDIGVGGREIGYLFGAYRSYKNSWEGVLTGKGLNWGGSLIRPEATGYGLVYYTQAMIDYATNGKESFEGKRVTISGSGNVAQYAALKVIELGGTVVSLSDSKGCIISETGITSEQVADISSAKVNFKSLEQIVNEYSTFSENKVQYIAGARPWTHVQKVDIALPCATQNEVSGEEAKALVAQGVKFIAEGSNMGSTPEAIAVFETARSTATGPSEAVWYGPPKAANLGGVAVSGLEMAQNSQRITWTSERVDQELKRIMINCFNECIDYAKKYTKDGKVLPSLVKGANIASFIKVSDAMFDQGDVF
- L-homoalanine produced (2-ketobutyrate; BW25113 transformant): 1.6
